According to paper PMC7442782, “Molecular basis for DNA repair synthesis on short gaps by mycobacterial Primase-Polymerase C” (Nature Communications, 2020):
Where a chain is given by its changes, count along the chain named.

Tests used:
[1] = target: T1, Prim–PolC (Msm Prim–PolC) (Mycolicibacterium smegmatis, UniProt A0R5T1); test: X-ray crystal structure, […] Å; assay type: binding; conditions: pre-catalytic ternary complex with 2-nt gapped DNA and two Mn2+; active site; pH 6.5
T1 construct: gene ligD; residues 4-336 printed for the crystal structure (may be the ordered part of the full-length protein); N-terminal His tag, pET28, made in E. coli Origami B pLysS
T1 sequence (A0R5T1 4-336): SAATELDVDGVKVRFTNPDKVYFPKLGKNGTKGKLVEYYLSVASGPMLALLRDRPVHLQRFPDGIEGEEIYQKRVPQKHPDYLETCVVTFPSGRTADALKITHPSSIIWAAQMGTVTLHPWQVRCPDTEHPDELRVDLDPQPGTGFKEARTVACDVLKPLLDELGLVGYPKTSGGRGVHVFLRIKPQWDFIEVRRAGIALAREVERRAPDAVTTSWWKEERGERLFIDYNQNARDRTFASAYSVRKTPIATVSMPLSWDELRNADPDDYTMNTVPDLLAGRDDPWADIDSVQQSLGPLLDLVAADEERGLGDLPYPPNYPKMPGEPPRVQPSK

[2] = target: T2, Prim-PolC (crystallisation construct) (UniProt A0R5T1 4-336); test: X-ray crystallography (2.2 A); Mn2+, UpNHpp; Crystals: 0.05 M Na cacodylate pH 6.5, 2 M ammonium sulfate, 0.01 M MnCl2, 285 K, 300 uM protein:600 uM DNA; 2-AP assay: 0-1 uM protein, 1 uM DNA, 5 mM Ca2+, 250 uM ATP (buffer, pH and temperature not in material); conditions: protein: recombinant; tags: N-terminal His; gapped duplex, 2-nt gap (AA), blunt outer ends
T2 sequence: T1 sequence (A0R5T1 4-336)

[3] = target: T2, Prim-PolC (crystallisation construct); test: X-ray crystallography (2.0 A); Mn2+; PPi in one complex, 3'-dUTP in the other; Crystals: 0.05 M Na cacodylate pH 6.5, 2 M ammonium sulfate, 0.01 M MnCl2, 285 K, 300 uM protein:600 uM DNA; 2-AP assay: 0-1 uM protein, 1 uM DNA, 5 mM Ca2+, 250 uM ATP (buffer, pH and temperature not in material); conditions: protein: recombinant; tags: N-terminal His; gapped duplex, 1-nt gap, blunt outer ends
Prim-PolC WT = target: T3, Prim-PolC WT (UniProt A0R5T1 1-350); test: 2-aminopurine fluorescence (base flipping); 5 mM Ca2+, 250 uM ATP; Crystals: 0.05 M Na cacodylate pH 6.5, 2 M ammonium sulfate, 0.01 M MnCl2, 285 K, 300 uM protein:600 uM DNA; 2-AP assay: 0-1 uM protein, 1 uM DNA, 5 mM Ca2+, 250 uM ATP (buffer, pH and temperature not in material); conditions: protein: recombinant, tags: N-terminal His, label: 2-AP, gapped duplex
T3 sequence: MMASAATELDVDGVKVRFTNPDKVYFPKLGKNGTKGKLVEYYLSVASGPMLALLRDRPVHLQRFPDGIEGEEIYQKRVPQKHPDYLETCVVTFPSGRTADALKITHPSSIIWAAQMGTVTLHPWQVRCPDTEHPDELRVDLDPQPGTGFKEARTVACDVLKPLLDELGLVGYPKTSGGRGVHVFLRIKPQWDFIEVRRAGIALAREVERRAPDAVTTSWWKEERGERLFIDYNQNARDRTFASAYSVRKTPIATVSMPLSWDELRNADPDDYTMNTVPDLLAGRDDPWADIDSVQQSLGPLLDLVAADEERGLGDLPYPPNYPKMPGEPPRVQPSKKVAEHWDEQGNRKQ

Prim-PolC N321G = target: T4, Prim-PolC N321G (UniProt A0R5T1 1-350, N321G); test: 2-aminopurine fluorescence (base flipping); 5 mM Ca2+, 250 uM ATP; similar to WT; Crystals: 0.05 M Na cacodylate pH 6.5, 2 M ammonium sulfate, 0.01 M MnCl2, 285 K, 300 uM protein:600 uM DNA; 2-AP assay: 0-1 uM protein, 1 uM DNA, 5 mM Ca2+, 250 uM ATP (buffer, pH and temperature not in material); conditions: protein: recombinant, tags: N-terminal His, label: 2-AP, gapped duplex
T4 sequence: T3 sequence with N321G

Prim-PolC N321A = target: T5, Prim-PolC N321A (UniProt A0R5T1 1-350, N321A); test: as above; conditions: protein: recombinant; tags: N-terminal His; label: 2-AP; gapped duplex, 1-nt gap
T5 sequence: T3 sequence with N321A

## O=c1ccn([C@@H]2O[C@H](COP(=O)(O)NP(=O)(O)OP(=O)(O)O)[C@@H](O)[C@H]2O)c(=O)[nH]1 [UpNHpp]
[1]
  X-ray crystal structure, 2.21 Å: a non-hydrolysable incoming UTP ribonucleotide (UpNHpp) and manganese ions were also included

B1: 2-nt gapped DNA T/P/D (dsDNA)
DNA 1: CGCTCGCAACGCACG
DNA 2: CGTGCG
DNA 3: GCGAGCG
modifications: 5'-phosphate on D strand
[2]
  binding result: binds

B2: 1-nt gapped post-catalytic DNA (mixed)
DNA 1: CGCTCGCAACGCACG
DNA 2: CGTGCGU
?: GCGAGCG
modifications: 5'-phosphate on D strand; primer 3' terminus is 3'-deoxyuridine (ribo, incorporated in situ)
[3]
  binding result: binds

B3: 2-AP 1-nt gap substrate (dsDNA)
DNA 1: AGTCGCATAGTGTAGTCATGTCGATTCGCCATAG
DNA 2: CTATGAGCGAATCGAC
DNA 3: CGACTACACTATGCGACT
modifications: 2-aminopurine at position 15 of primer oKZ282 (written A); 5'-phosphate on downstream strand
Prim-PolC WT; 1-nt gap
  binding result: binds
Prim-PolC N321G; 1-nt gap
  binding result: binds
Prim-PolC N321A
  binding result: binds

B4: 2-AP 3-nt gap substrate (dsDNA)
DNA 1: B3 DNA 1
DNA 2: CTATGAGCGAATCGAC
DNA 3: ACTACACTATGCGACT
modifications: 2-aminopurine at position 15 of primer oKZ282 (written A); 5'-phosphate on downstream strand
Prim-PolC N321G; 3-nt gap
  binding result: binds

B5: 2-AP 2-nt gap substrate (dsDNA)
DNA 1: B3 DNA 1
DNA 2: CTATGAGCGAATCGAC
DNA 3: GACTACACTATGCGACT
modifications: 2-aminopurine at position 15 of primer oKZ282 (written A); 5'-phosphate on downstream strand
Prim-PolC WT; 2-nt gap
  binding result: binds
